Like-named read-outs stand apart in the source and are kept apart here.
Key:
[1] = Pharmacokinetics in Sprague Dawley rats after i.v. and s.c. single dose
Procedure: (§4) The pharmacokinetic of the compounds of the examples is investigated in male Sprague Dawley rats after intravenous (i.v.) and subcutaneous (s.c.) single dose administration.
(§5) Test compounds are diluted to a final concentration of 1 mg/mL in a dilution buffer consisting of: Glycine 20 mg/mL, mannitol 2 mg/mL, NaHCO3 2.5 mg/mL, pH adjusted to 8.2.
(§6) The test compounds are studied in male Sprague Dawley rats weighing 250 g. The test compounds are administered as a single injection either i.v. in the tail vein or s.c. in the neck with a 25 G needle at a dose of 60 nmol/kg body weight.
(§7) At each sampling time 0.25 ml blood is drawn from the tail vein using a 25 G needle. The blood is sampled into a EDTA coated test tube and stored on ice until centrifugation at 1200×G for 10 min at 4° C. Plasma is transferred to a Micronic tube and stored at −20° C. until analysis.
(§8) A non-compartmental pharmacokinetic analysis is performed on mean concentration-time profiles of each test compound using WinNonlin Professional (Pharsight Inc., Mountain View, Calif., USA). The pharmacokinetic parameter estimates of terminal half-life (t1/2) and mean residence time (MRT) are calculated.

[2] = biological target: T1, chymotrypsin (Bos taurus, UniProt P00766); test: Protease stability, incubation with chymotrypsin; type: in vitro ADME; conditions: incubation for 4 hours with chymotrypsin
T1 construct: purchased Roche
From the text: (§1) The compound of interest is digested by a relevant protease (Trypsin, Chymotrypsin, Pepsin, Elastase, Factor VIIa, Factor Xa, Proteinase K, Carboxy peptidase, DPPIV, Neutral Endopeptidase, Granzyme B, Proline-endopeptidase, Staphylococcal peptidase I, Thermolysin, Thrombin, Arg-C proteinase, Asp-N endopeptidase, Caspase 1-10, Clostripain, Enterokinase, Glutamyl endopeptidase, Granzyme B, LysC, LysN, Proline-endopeptidase and Staphylococcal peptidase I or tissue extracts.) in an appropriate buffer (e.g. PBS or ammonium bicarbonate) at 37° C. for up till 24 hrs. Proteolytic degradation is assessed by a HPLC assay.
(§2) 100 μL of test compound solution at 1 mg/mL in ammonium bicarbonate buffer is degraded by enzyme for up till 24 hrs at 37° C. […] These diluted samples are analysed by reversed phase HPLC to estimate the degree of proteolytic digestion.
(§3) 10 μL of the above solution is injected on a reversed phase Vydac C4 2×150 mm column eluted with a linear gradient from 0.1% TFA in water to 100% acetonitrile containing 0.1% TFA over a period of 30 min at a flow rate of 0.2 ml/min. […] Percentage (%) intact compound at time point t=T is calculated from the peak area at time point t=T (AT) and the peak area at t=0 (A0) as (AT/A0)×100%. […] Half life (T1/2) is calculated as one phase decay also by GraphPad Prism software. […]

[3] = biological target: T2, elastase (Sus scrofa, UniProt P00772); test: Protease stability, incubation with elastase; type: in vitro ADME, porcine; conditions: incubation for 4 hours with elastase
T2 construct: purchased Sigma; host or cells: porcine pancreas
T2 sequence (P00772 27-266): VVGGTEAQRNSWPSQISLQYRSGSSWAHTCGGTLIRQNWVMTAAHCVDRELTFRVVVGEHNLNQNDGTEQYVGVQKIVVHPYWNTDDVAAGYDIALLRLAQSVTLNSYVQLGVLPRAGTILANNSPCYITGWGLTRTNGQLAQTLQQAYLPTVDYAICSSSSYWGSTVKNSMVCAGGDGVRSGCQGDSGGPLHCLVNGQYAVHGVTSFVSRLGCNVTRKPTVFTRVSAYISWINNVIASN
From the text: as §1, §2, §3

[4] = in vivo, iv
Procedure: as §4, §5, §6, §7, §8

[5] = biological target: T3, human growth hormone receptor (BAF-3 GHR cells) (Homo sapiens, UniProt P10912); test: BAF-3 GHR assay to determine growth hormone activity; type: cell-based, mouse; conditions: Table 5; relative to hGH = 1.0 (def)
T3 construct: expressed in transfected cells; host or cells: BAF-3 (murine pro-B lymphoid cell line)
T3 sequence (P10912 19-638): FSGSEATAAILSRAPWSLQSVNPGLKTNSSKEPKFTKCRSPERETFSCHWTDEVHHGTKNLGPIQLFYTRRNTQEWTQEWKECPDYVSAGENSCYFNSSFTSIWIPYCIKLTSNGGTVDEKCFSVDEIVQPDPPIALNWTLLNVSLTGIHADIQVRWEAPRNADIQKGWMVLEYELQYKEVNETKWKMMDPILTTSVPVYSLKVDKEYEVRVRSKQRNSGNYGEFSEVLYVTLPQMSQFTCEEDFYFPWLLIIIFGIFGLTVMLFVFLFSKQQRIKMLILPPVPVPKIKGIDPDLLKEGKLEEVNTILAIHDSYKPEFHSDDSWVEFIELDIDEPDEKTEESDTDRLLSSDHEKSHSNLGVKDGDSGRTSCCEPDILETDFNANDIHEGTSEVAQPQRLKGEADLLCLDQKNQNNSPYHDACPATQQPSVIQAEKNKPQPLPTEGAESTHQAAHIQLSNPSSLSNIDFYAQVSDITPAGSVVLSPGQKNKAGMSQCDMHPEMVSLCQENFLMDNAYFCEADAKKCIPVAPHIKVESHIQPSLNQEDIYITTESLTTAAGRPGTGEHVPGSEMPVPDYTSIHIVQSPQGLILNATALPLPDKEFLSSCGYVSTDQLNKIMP
Procedure: This clone can be used to evaluate the effect of different growth hormone samples on the survival of the BAF-3 GHR.
The BAF-3 GHR cells are grown in starvation medium (culture medium without growth hormone) for 24 hrs at 37° C., 5% CO2.
The cells are washed and re-suspended in starvation medium and seeded in plates. 10 μL of growth hormone compound or human growth hormone in different concentrations or control is added to the cells, and the plates are incubated for 68 hrs at 37° C., 5% CO2.
AlamarBlue® is added to each well and the cells are then incubated for another 4 hrs. The AlamarBlue® is a redox indicator, and is reduced by reactions innate to cellular metabolism and, therefore, provides an indirect measure of viable cell number.
Finally, the metabolic activity of the cells is measure in a fluorescence plate reader. The absorbance in the samples is expressed in % of cells not stimulated with growth hormone compound or control and from the concentration-response curves the activity (amount of a compound that stimulates the cells with 50%) can be calculated.

[6] = test system: plasma IGF-1; test: In vivo dose-response study in hypophysectomised Sprague Dawley rats (plasma IGF-1); conditions: Table 5
Procedure: The in vivo dose-response relationship is studied in hypophysectomised male Sprague Dawley rats. The hypophysectomised rat is a well known and recognised animal model of growth hormone deficiency, where no production of growth hormone occurs after the surgical removal of the pituitary gland. This also leads to low circulating levels of insulin-like growth factor-1 (IGF-1) another important clinical feature of growth hormone deficiency in humans.
The hypophysectomy is performed on 4 week old male rats weighing 90-100 g. The animals entering the study 3-4 weeks after the surgery weighing 100-110 g. Animals with a body weight gain of more than 10% during the 3-4 weeks after surgery are not allowed to enter the study.
Dose response studies are performed using five dose levels of compound 45.4 from 1-150 nmol/rat.

Substance	T1/2 (i.v. Rat) ([1]; Table 4)	T1/2 (i.v. Rat) ([1]; Table 5)	Chymotrypsin (% intact GH compound) [2]	Elastase (% intact GH compound) [3]	T1/2 (i.v. Rat) [4]	MRT ([4]; rat, 60 nmol/kg)	T1/2 ([4]; rat, 60 nmol/kg)	In vitro potency [5]	Duration of IGF-1 increase [6]
hGH: wild-type human growth hormone, 191 amino acid residue protein (SEQ ID NO: 1)	0.23 h	0.23 h	40%	25%	–	–	–	–	–
2-(C20diacid-Trx-γGlu-OEG-OEG-δLys)-carbonylmethylene-S^101-hGH[L101C] [Compound 44.1]	–	–	–	–	5.6 h	7.2 h	5.6 h	4.7	>48 h

Source: patent US8779109B2, “Growth hormones with prolonged in-vivo efficacy” (Novo Nordisk Health Care AG, priority 2010, dated 2014)
